The source of these data is paper PMC13389011.

pKd, pKi: −log10 of the molar value. “And” between values parts separate entries of the source, which are not always exact repeats. Identical values can stand only once.

The test system of data set [1] is Human insulin receptor ectodomain (HIR) (Homo sapiens), P06213-2+P06213-2. Briefly: MST. The note with it: DNA backbone, PBS (1.5 mM KH2PO4, 8.1 mM Na2HPO4, 2.7 mM KCl, 137 mM NaCl) with 5 mM MgCl2, pH 7.4, MST with 0.1% Pluronic F-127 at 25 C, FNBA at room temperature, high values mean tight binding.
Data set [2] has the same test system. Briefly: ELONA. As to conditions: DNA backbone, PBS (1.5 mM KH2PO4, 8.1 mM Na2HPO4, 2.7 mM KCl, 137 mM NaCl) with 5 mM MgCl2, pH 7.4, MST with 0.1% Pluronic F-127 at 25 C, FNBA at room temperature, high values mean tight binding.
Data set [3] has as its target Dog insulin receptor ectodomain (DIR) (dog) (UniProt A0A8I3PWD4). Description: MST. As to conditions: phenyl-dU (rigid) and indole-dA (flexible) after nt 20; IB: PBS (1.5 mM KH2PO4, 8.1 mM Na2HPO4, 2.7 mM KCl, 137 mM NaCl) + 5 mM MgCl2, pH 7.4; MST +0.1% Pluronic F-127, 25 C; SPR 25 C; FNBA and BLI r.t.
Data set [4] has as its system Human insulin receptor ectodomain (HIR) (Homo sapiens), P06213-2. Briefly: MST. The note with it: IB: PBS (1.5 mM KH2PO4, 8.1 mM Na2HPO4, 2.7 mM KCl, 137 mM NaCl) + 5 mM MgCl2, pH 7.4, MST +0.1% Pluronic F-127, 25 C, SPR 25 C, FNBA and BLI r.t.
Data set [5] concerns the target Human IGF-1R ectodomain (Homo sapiens) (UniProt P08069+P08069). Description: MST. The note with it: DNA backbone; 7-deaza-7-(indolyl-ethyl)-dA (dAAIn) at 27,28,32,33,35,39,48,51; 5-(phenyl-ethynyl)-dU (dUEPh) at 24,25,26,31,40,42,44,46,49,52,54; PBS (1.5 mM KH2PO4, 8.1 mM Na2HPO4, 2.7 mM KCl, 137 mM NaCl) with 5 mM MgCl2, pH 7.4; MST with 0.1% Pluronic F-127 at 25 C; FNBA at room temperature; high values mean tight binding.

Data set [6] concerns Human insulin receptor isoform A, native (IM-9 cells) (Homo sapiens), P06213-2+P06213-2. Description: competition with 125I-insulin. As to conditions: after primer nt 1-20 every U = rigidly linked phenyl-dU and every A = flexibly linked indole-dA (nucleotides 1,2); DNA backbone; IB: PBS (1.5 mM KH2PO4, 8.1 mM Na2HPO4, 2.7 mM KCl, 137 mM NaCl) + 5 mM MgCl2, pH 7.4; MST +0.1% Pluronic F-127, 25 C; SPR 25 C; FNBA and BLI r.t.

Data set [7] has as its system Human insulin receptor ectodomain (HIR) (Homo sapiens), P06213-2. Briefly: BLI. As to conditions: after primer nt 1-20 every U = rigidly linked phenyl-dU and every A = flexibly linked indole-dA (nucleotides 1,2); DNA backbone; IB: PBS (1.5 mM KH2PO4, 8.1 mM Na2HPO4, 2.7 mM KCl, 137 mM NaCl) + 5 mM MgCl2, pH 7.4; MST +0.1% Pluronic F-127, 25 C; SPR 25 C; FNBA and BLI r.t.

Data set [8] shares this test system. Briefly: SPR. As to conditions: after primer nt 1-20 every U = rigidly linked phenyl-dU and every A = flexibly linked indole-dA (nucleotides 1,2); DNA backbone; IB: PBS (1.5 mM KH2PO4, 8.1 mM Na2HPO4, 2.7 mM KCl, 137 mM NaCl) + 5 mM MgCl2, pH 7.4; MST +0.1% Pluronic F-127, 25 C; SPR 25 C; FNBA and BLI r.t.
The target in data set [9] is T1, Dog insulin receptor ectodomain (DIR) (dog) (UniProt A0A8I3PWD4+A0A8I3PWD4). Description: MST. As to conditions: DNA backbone; 7-deaza-7-(indolyl-ethyl)-dA (dAAIn) at 27,28,32,33,35,39,48,51; 5-(phenyl-ethynyl)-dU (dUEPh) at 24,25,26,31,40,42,44,46,49,52,54; PBS (1.5 mM KH2PO4, 8.1 mM Na2HPO4, 2.7 mM KCl, 137 mM NaCl) with 5 mM MgCl2, pH 7.4; MST with 0.1% Pluronic F-127 at 25 C; FNBA at room temperature; high values mean tight binding.

Data set [10] has as its target T2, Cat insulin receptor ectodomain (CIR) (cat) (UniProt A0ABI7YJR5+A0ABI7YJR5). Description: MST. As to conditions: DNA backbone; 7-deaza-7-(indolyl-ethyl)-dA (dAAIn) at 27,28,32,33,35,39,48,51; 5-(phenyl-ethynyl)-dU (dUEPh) at 24,25,26,31,40,42,44,46,49,52,54; PBS (1.5 mM KH2PO4, 8.1 mM Na2HPO4, 2.7 mM KCl, 137 mM NaCl) with 5 mM MgCl2, pH 7.4; MST with 0.1% Pluronic F-127 at 25 C; FNBA at room temperature; high values mean tight binding.

The target of data set [11] is T1, Dog insulin receptor ectodomain (DIR) (dog). Briefly: ELONA. As to conditions: DNA backbone; 7-deaza-7-(indolyl-ethyl)-dA (dAAIn) at 27,28,32,33,35,39,48,51; 5-(phenyl-ethynyl)-dU (dUEPh) at 24,25,26,31,40,42,44,46,49,52,54; PBS (1.5 mM KH2PO4, 8.1 mM Na2HPO4, 2.7 mM KCl, 137 mM NaCl) with 5 mM MgCl2, pH 7.4; MST with 0.1% Pluronic F-127 at 25 C; FNBA at room temperature; high values mean tight binding.

The target of data set [12] is T2, Cat insulin receptor ectodomain (CIR) (cat). Briefly: ELONA. The note with it: DNA backbone; 7-deaza-7-(indolyl-ethyl)-dA (dAAIn) at 27,28,32,33,35,39,48,51; 5-(phenyl-ethynyl)-dU (dUEPh) at 24,25,26,31,40,42,44,46,49,52,54; PBS (1.5 mM KH2PO4, 8.1 mM Na2HPO4, 2.7 mM KCl, 137 mM NaCl) with 5 mM MgCl2, pH 7.4; MST with 0.1% Pluronic F-127 at 25 C; FNBA at room temperature; high values mean tight binding.

Data set [13] concerns the target Insulin (Homo sapiens) (UniProt P01308). Briefly: radioligand binding. The note with it: cited from earlier work.
Setting [14] is: 7-deaza-7-(indolyl-ethyl)-dA (dAAIn) at 27,35,36,38,41,44,48,54, 5-(phenyl-ethynyl)-dU (dUEPh) at 21,22,23,32,33,37,40,45,46,50,53.
Setting [15] is: 7-deaza-7-(indolyl-ethyl)-dA (dAAIn) at 27,28,32,33,35,39,48,51, 5-(phenyl-ethynyl)-dU (dUEPh) at 24,25,26,31,40,42,44,46,49,52,54.
Where [16] appears, read: 7-deaza-7-(indolyl-ethynyl)-dA (dAEIn) at 27,28,32,33,35,39,48,51, 5-(phenyl-ethyl)-dU (dUAPh) at 24,25,26,31,40,42,44,46,49,52,54.
Where [17] appears, read: 7-deaza-7-(indolyl-ethynyl)-dA (dAEIn) at 27,28,32,33,35,39,48,51, 5-(phenyl-ethynyl)-dU (dUEPh) at 24,25,26,31,40,42,44,46,49,52,54.
Setting [18] is: 7-deaza-7-(indolyl-ethyl)-dA (dAAIn) at 27,28,32,33,35,39,48,51, 5-(phenyl-ethyl)-dU (dUAPh) at 24,25,26,31,40,42,44,46,49,52,54.
Setting [19] is: 7-deaza-7-(phenyl-ethyl)-dA (dAAPh) at 27,28,32,33,35,39,48,51, 5-(phenyl-ethynyl)-dU (dUEPh) at 24,25,26,31,40,42,44,46,49,52,54.

Sequence of Human insulin receptor ectodomain (HIR) (Homo sapiens), P06213-2 (P06213 other isoform, or with tags, fused parts or gaps): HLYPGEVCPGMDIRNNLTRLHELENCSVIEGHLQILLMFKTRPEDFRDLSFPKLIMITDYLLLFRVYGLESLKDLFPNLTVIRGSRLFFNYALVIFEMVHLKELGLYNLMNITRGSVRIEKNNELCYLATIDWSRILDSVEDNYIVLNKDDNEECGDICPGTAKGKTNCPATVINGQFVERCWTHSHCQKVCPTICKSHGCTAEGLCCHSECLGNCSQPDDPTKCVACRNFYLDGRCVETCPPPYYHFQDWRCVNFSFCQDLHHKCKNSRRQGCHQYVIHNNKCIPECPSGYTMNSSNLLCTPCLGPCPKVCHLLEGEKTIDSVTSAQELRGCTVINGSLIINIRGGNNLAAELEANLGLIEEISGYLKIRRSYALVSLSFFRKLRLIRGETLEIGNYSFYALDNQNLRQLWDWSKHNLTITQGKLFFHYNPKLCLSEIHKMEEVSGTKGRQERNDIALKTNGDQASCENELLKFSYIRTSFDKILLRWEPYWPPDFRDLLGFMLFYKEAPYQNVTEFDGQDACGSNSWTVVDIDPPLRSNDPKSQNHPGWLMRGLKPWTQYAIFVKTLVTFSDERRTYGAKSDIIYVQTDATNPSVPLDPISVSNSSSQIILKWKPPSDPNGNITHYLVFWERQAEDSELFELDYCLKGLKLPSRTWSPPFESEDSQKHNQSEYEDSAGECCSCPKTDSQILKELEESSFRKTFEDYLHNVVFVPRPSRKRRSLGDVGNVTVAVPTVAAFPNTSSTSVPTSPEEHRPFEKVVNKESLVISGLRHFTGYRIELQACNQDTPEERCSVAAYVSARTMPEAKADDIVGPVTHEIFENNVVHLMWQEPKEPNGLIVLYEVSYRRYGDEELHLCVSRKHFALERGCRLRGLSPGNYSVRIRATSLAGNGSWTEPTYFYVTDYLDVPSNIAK
Sequence of Human insulin receptor ectodomain (HIR) (Homo sapiens), P06213-2+P06213-2 (P06213 other isoform, or with tags, fused parts or gaps, chain 1 of 2): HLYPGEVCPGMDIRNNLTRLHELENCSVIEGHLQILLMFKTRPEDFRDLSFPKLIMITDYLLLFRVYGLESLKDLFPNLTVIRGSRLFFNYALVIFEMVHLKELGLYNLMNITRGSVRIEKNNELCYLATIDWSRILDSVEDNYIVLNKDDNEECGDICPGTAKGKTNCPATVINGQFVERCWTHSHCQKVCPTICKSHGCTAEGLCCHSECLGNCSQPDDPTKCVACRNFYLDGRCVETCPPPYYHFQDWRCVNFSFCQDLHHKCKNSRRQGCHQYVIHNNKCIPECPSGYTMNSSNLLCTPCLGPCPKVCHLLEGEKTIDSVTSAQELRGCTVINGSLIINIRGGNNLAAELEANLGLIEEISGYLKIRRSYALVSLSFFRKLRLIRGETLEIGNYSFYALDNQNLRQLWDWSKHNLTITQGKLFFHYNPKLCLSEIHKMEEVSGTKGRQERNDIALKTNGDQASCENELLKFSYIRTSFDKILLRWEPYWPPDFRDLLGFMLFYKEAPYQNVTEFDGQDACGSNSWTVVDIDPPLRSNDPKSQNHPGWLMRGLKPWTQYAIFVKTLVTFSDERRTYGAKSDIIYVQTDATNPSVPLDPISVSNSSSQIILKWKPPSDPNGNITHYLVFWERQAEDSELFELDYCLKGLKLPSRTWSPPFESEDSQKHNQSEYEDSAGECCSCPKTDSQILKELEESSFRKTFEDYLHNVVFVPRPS
Sequence of Human insulin receptor ectodomain (HIR) (Homo sapiens), P06213-2+P06213-2 (P06213 763-956, chain 2 of 2): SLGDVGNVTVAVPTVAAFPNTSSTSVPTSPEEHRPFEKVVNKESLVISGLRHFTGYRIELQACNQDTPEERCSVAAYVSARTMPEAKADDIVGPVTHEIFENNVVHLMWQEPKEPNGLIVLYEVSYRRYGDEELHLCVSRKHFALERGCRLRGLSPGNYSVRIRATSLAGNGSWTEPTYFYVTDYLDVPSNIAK
T2 sequence (chain, as listed by the source, chain 1 of 2): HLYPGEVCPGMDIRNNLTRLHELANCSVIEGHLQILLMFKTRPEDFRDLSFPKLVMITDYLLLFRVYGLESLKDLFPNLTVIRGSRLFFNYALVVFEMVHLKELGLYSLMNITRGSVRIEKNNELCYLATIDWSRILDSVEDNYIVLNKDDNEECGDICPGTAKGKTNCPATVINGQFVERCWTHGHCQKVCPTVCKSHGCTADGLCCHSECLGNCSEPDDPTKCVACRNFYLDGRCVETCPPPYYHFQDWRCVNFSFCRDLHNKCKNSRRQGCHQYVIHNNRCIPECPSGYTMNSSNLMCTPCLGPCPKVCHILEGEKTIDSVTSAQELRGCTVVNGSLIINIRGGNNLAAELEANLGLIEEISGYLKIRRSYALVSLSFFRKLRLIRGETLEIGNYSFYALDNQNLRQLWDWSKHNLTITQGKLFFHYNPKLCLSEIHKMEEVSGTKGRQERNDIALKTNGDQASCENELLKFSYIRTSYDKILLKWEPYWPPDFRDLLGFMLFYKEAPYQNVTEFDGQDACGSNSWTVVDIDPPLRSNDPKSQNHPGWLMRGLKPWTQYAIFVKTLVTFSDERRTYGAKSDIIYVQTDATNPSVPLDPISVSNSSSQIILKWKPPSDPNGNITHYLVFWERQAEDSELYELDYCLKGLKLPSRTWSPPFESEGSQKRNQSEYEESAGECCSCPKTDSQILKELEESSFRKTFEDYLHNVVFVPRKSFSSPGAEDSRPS
T2 sequence (chain, as listed by the source, chain 2 of 2): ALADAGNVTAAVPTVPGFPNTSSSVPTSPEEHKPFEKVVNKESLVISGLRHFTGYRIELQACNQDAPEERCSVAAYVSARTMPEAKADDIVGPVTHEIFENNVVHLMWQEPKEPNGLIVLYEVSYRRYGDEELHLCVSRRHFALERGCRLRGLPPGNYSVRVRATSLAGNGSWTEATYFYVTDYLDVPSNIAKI
T1 sequence (chain, as listed by the source, chain 1 of 2): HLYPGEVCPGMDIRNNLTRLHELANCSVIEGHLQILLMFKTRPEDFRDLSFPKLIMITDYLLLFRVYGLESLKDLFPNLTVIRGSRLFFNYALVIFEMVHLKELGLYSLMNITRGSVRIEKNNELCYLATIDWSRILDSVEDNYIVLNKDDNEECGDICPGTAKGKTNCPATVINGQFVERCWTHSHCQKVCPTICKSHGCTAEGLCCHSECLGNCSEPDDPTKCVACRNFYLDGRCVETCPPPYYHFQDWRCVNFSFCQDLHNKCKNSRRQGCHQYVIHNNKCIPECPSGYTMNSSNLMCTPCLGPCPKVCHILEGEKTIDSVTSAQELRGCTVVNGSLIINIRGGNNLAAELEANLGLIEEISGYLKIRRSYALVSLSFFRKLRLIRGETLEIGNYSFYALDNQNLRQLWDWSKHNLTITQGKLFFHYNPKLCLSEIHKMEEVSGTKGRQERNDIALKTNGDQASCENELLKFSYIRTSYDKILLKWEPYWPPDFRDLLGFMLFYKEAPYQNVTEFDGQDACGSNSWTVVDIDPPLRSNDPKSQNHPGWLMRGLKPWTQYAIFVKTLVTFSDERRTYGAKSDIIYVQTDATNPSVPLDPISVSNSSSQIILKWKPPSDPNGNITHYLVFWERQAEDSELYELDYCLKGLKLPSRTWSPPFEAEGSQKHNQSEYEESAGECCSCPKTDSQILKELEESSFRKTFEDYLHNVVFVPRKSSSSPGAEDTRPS
T1 sequence (chain, as listed by the source, chain 2 of 2): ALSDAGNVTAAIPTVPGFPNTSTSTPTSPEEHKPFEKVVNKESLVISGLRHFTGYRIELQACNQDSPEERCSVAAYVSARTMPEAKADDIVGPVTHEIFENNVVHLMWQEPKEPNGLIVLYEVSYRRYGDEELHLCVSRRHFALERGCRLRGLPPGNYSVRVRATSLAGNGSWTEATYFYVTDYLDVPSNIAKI
Sequence of Dog insulin receptor ectodomain (DIR) (dog) (UniProt A0A8I3PWD4) (A0A8I3PWD4 entry or part of it): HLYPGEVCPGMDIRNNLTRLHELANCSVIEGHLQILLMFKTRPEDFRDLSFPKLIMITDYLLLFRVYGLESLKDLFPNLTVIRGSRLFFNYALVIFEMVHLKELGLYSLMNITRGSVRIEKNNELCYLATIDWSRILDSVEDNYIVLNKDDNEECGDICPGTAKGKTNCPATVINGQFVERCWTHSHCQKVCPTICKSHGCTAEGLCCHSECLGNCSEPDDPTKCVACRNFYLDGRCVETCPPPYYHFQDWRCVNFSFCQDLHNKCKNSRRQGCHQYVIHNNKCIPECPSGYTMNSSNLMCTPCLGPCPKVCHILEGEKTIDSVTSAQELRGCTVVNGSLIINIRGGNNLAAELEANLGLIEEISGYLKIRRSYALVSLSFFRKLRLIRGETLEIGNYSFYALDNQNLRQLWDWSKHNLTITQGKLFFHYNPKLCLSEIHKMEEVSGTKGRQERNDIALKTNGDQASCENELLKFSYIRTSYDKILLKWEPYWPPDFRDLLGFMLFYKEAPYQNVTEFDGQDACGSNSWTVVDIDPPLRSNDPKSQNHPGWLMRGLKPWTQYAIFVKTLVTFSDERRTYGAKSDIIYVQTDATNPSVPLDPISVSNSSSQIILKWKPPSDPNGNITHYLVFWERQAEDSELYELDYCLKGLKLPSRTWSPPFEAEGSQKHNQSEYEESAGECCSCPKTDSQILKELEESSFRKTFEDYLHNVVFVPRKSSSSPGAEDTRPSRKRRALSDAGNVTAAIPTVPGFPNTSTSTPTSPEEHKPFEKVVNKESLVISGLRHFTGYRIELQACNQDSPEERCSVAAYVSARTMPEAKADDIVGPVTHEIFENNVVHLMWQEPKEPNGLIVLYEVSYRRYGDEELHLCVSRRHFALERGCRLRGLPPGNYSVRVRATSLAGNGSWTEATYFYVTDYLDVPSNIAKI
Sequence of Insulin (Homo sapiens) (P01308 90-110): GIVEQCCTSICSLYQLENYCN

In the case of “ACTGCACCTGGCCTTTAACTUUUCGCACGCGUUGAAUACUACCAUUGAGUCGUAG [HIR_SC]”, in data set [1] (setting [14]), the binding (delta Fnorm (per mille)) is -1.14. For the same substance, in data set [2] (setting [14]), the binding signal (a.u. fluorescence) turned out to be 266.

A word on the pKd: it is −log10 of the Kd, conventionally taken in molar units. Turning to “CAACTTCTACCGGTCCATGTUUGUGAUGCCGACAGCUAGCAGCAAGUAAACGGUC [DIR-5]”, in data set [3], the pKd was 7.72.

Regarding “CATGACGCTCACTGTATCTCGCCUUUAACGUAAGAGCGAUGUCUCUCAUGAUGUC [HIR-8]”, the binding (delta Fnorm (per mille)) was 24.8 in [1] (setting [15]) and -0.562 in data set [5]. Besides, in data set [4] (as HIR-6: phenyl-dU (rigid) and indole-dA (flexible) after nt 20), the pKd was 7.93. This substance also yielded a binding signal (a.u. fluorescence) in data set [2] (setting [15]) of 34500.

Take “CATGACGCTCACTGTATCTCGCGTTTAACGUAACAGCGAUGUCUCUCAUGAUGUC [HIR-6_M1]”: the binding signal (a.u. fluorescence) in data set [2] (7-deaza-7-(indolyl-ethyl)-dA (dAAIn) at 32,33,35,39,48,51, 5-(phenyl-ethynyl)-dU (dUEPh) at 31,40,42,44,46,49,52,54) is 205.

For orientation: pKi means −log10 of the Ki, conventionally taken in molar units. With “CATGACGCTCACTGTATCTCGCGUUUAACGUAACAGCGAUGUCUCUCAUGAUGUC [HIR-6]”, the pKi in [6] is 7.16. In addition, the negative logarithm of the Kd (pKd) in data set [7] was 9.86; in data set [8] it was 9.51; in [4] (after primer nt 1-20 every U = rigidly linked phenyl-dU and every A = flexibly linked indole-dA (nucleotides 1,2), DNA backbone) it was 8.65. Further, the binding (delta Fnorm (per mille)) is 38.1 in data set [1] (setting [15]), -1.86 in data set [9], 3.56 in data set [5] and -0.745 in data set [10]. In addition, the binding signal (a.u. fluorescence) in data set [2] (setting [15]) is 45800 and 39500 and 44800; in data set [11], 272; in [12], 164.

For the substance “CATGACGCTCACTGTATCTCGCGUUUAACGUAACAGCGAUGUCUCUCAUGAUGUC [HIR-6_V1]”, the binding (delta Fnorm (per mille)) in data set [1] (setting [16]) is -0.274. Moreover, the binding signal (a.u. fluorescence) in data set [2] (setting [16]) is 742.

Substance “CATGACGCTCACTGTATCTCGCGUUUAACGUAACAGCGAUGUCUCUCAUGAUGUC [HIR-6_V2]” showed a binding (delta Fnorm (per mille)) in data set [1] (setting [17]) of 1.86. Besides, the binding signal (a.u. fluorescence) in [2] (setting [17]) was found to be 644.

Consider “CATGACGCTCACTGTATCTCGCGUUUAACGUAACAGCGAUGUCUCUCAUGAUGUC [HIR-6_V3]”, for which the binding (delta Fnorm (per mille)) in data set [1] (setting [18]) was -3.35. The same substance yielded a binding signal (a.u. fluorescence) in data set [2] (setting [18]) of 196.

In the case of “CATGACGCTCACTGTATCTCGCGUUUAACGUAACAGCGAUGUCUCUCAUGAUGUC [HIR-6_V4]”, the binding (delta Fnorm (per mille)) in data set [1] (setting [19]) was -1.7. Besides, the binding signal (a.u. fluorescence) in data set [2] (setting [19]) worked out at 195.

As to Insulin receptor (from UniProt P06213), the pKd in data set [13] is 9.52.
